In paper PMC3113324, “AKAP5 and AKAP12 Form Homo-oligomers” (Journal of Molecular Signaling, 2011):

B1: His-tagged AKAP12 (840-1782) (domain or fragment, human, UniProt Q02952 840-1782, looked up)
chain: DSDVPAVVPLSEYDAVEREKMEAQQAQKSAEQPEQKAATEVSKELSESQVHMMAAAVADGTRAATIIEERSPSWISASVTEPLEQVEAEAALLTEEVLEREVIAEEEPPTVTEPLPENREARGDTVVSEAELTPEAVTAAETAGPLGAEEGTEASAAEETTEMVSAVSQLTDSPDTTEEATPVQEVEGGVPDIEEQERRTQEVLQAVAEKVKEESQLPGTGGPEDVLQPVQRAEAERPEEQAEASGLKKETDVVLKVDAQEAKTEPFTQGKVVGQTTPESFEKAPQVTESIESSELVTTCQAETLAGVKSQEMVMEQAIPPDSVETPTDSETDGSTPVADFDAPGTTQKDEIVEIHEENEVASGTQSGGTEAEAVPAQKERPPAPSSFVFQEETKEQSKMEDTLEHTDKEVSVETVSILSKTEGTQEADQYADEKTKDVPFFEGLEGSIDTGITVSREKVTEVALKGEGTEEAECKKDDALELQSHAKSPPSPVEREMVVQVEREKTEAEPTHVNEEKLEHETAVTVSEEVSKQLLQTVNVPIIDGAKEVSSLEGSPPPCLGQEEAVCTKIQVQSSEASFTLTAAAEEEKVLGETANILETGETLEPAGAHLVLEEKSSEKNEDFAAHPGEDAVPTGPDCQAKSTPVIVSATTKKGLSSDLEGEKTTSLKWKSDEVDEQVACQEVKVSVAIEDLEPENGILELETKSSKLVQNIIQTAVDQFVRTEETATEMLTSELQTQAHVIKADSQDAGQETEKEGEEPQASAQDETPITSAKEESESTAVGQAHSDISKDMSEASEKTMTVEVEGSTVNDQQLEEVVLPSEEEGGGAGTKSVPEDDGHALLAERIEKSLVEPKEDEKGDDVDDPENQNSALADTDASGGLTKESPDTNGPKQKEKEDAQEVELQEGKVHSESDKAITPQAQEELQKQERESAKSELTES
notes: AKAP12, human, C-terminal fragment, residues 840-1782, in pET28b(+); also called C-terminal (840-1782) fragment of AKAP12; source: E. coli, purified (Ni-NTA)
B2: His-tagged AKAP12 (1-840) (domain or fragment, human, UniProt Q02952 1-840, looked up)
chain: MGAGSSTEQRSPEQPPEGSSTPAEPEPSGGGPSAEAAPDTTADPAIAASDPATKLLQKNGQLSTINGVAEQDELSLQEGDLNGQKGALNGQGALNSQEEEEVIVTEVGQRDSEDVSKRDSDKEMATKSAVVHDITDDGQEETPEIIEQIPSSESNLEELTQPTESQANDIGFKKVFKFVGFKFTVKKDKTEKPDTVQLLTVKKDEGEGAAGAGDHKDPSLGAGEAASKESEPKQSTEKPEETLKREQSHAEISPPAESGQAVEECKEEGEEKQEKEPSKSAESPTSPVTSETGSTFKKFFTQGWAGWRKKTSFRKPKEDEVEASEKKKEQEPEKVDTEEDGKAEVASEKLTASEQAHPQEPAESAHEPRLSAEYEKVELPSEEQVSGSQGPSEEKPAPLATEVFDEKIEVHQEEVVAEVHVSTVEERTEEQKTEVEETAGSVPAEELVEMDAEPQEAEPAKELVKLKETCVSGEDPTQGADLSPDEKVLSKPPEGVVSEVEMLSSQERMKVQGSPLKKLFTSTGLKKLSGKKQKGKRGGGDEESGEHTQVPADSPDSQEEQKGESSASSPEEPEEITCLEKGLAEVQQDGEAEEGATSDGEKKREGVTPWASFKKMVTPKKRVRRPSESDKEDELDKVKSATLSSTESTASEMQEEMKGSVEEPKPEEPKRKVDTSVSWEALICVGSSKKRARRGSSSDEEGGPKAMGGDHQKADEAGKDKETGTDGILAGSQEHDPGQGSSSPEQAGSPTEGEGVSTWESFKRLVTPRKKSKSKLEEKSEDSIAGSGVEHSTPDTEPGKEESWVSIKKFIPGRRKKRPDGKQEQAPVEDAGPTGANEDD
notes: AKAP12, human, N-terminal fragment, residues 1-840, in pET28b(+); also called N-terminal (1-840) fragment of AKAP12; source: E. coli, purified (Ni-NTA)

Molecular target: the molecule itself
Test: SDS-PAGE (SDS-resistant oligomers); purified His-tagged proteins resolved on SDS-PAGE without urea; Coomassie staining and immunoblotting

Protein	stoichiometry N
B1	2
B2	2
